# Experimental data: patent US20060252692A1, “Inhibitors for use in hemostasis” (ZymoGenetics, Inc., priority 2002, published 2006)
# B1: zsig37CEE: zsig37 polypeptide having a C-terminal Glu-Glu tag (protein)
# chain: LVLSRVPHVQGEQQEWEGTEELPSPPDHAERAEEQHEKYRPSQDQGLPASRCLRCCDPGTSMYPATAVPQINITILKGEKGDRGDRGLQGKYGKTGSAGARGHTGPKGQKGSMGAPGERCKSHYAAFSVGRKKPMHSNHYYQTVIFDTEFVNLYDHFNMFTGKFYCYVPGLYFFSLNVHTWNQKETYLHIMKNEEEVVILFAQVGDRSIMQSQSLMLELREQDQVWVRLYKGERENAIFSEELDTYITFSGYLVKHATEPEEYMPME
# Tests used:
# template bleeding time = tested on: template bleeding time; design: species or system Macaca fascicularis; conditions: cynomolgus monkey, in vivo
# Description: In order to evaluate one aspect of the safety of zsig37 and its effect on template bleeding time, a pre-clinical model in Macaca fascicularis was used. Time to cessation of bleeding from standardized incisions on the animal's forearm, a procedure previously described by Wu, et al., Blood, 2002, 99:3623-3628, was employed to assess the effect of zsig37 on bleeding.
# Methods. Five female and twelve male, Macaca fascicularis weighing 2.3 to 4.6 kg were used as test subjects on this project. The animals were immobilized with ketamine hydrochloride (Phoenix Scientific) administered intramuscularly at approximately 10 mg/kg. Each animal was examined, and the animal determined to be acceptable for the study. The right forearm, abdomen, ventral neck and inguinal area were shaved free of hair. The animal was transported to the surgical suite (University of Washington Regional Primate Research Center), positioned inside a heated air circulation system and placed onto isoflurane (Abbott Laboratories) inhalation anesthesia delivered through positive pressure ventilation via an endotracheal tube. […] The time to cessation of bleeding was determined and recorded for each animal. Bleeding times were determined for each animal prior to any treatment, after low molecular weight heparin (Lovenox™, Rhone Polenc, Inc.) treatment and after zsig37 treatment.
# TF-1 cells = assay: Adhesion and spreading of TF-1 cells on zsig37-coated plates; type: cell-based; conditions: plates coated in PBS vs 0.1 M NaCO3
# Experimental: The ability of zsig37 to stimulate adhesion and spreading of TF-1 cells was assayed as follows. A series of dilutions were prepared from C-terminal Glu-Glu-tagged zsig37, from 10 to 0.0625 ’g/ml, in either PBS or ELISA coating buffer (0.1 M NaCO3) and each was plated into a 96 well plate (Costar; Pleasanton, Calif.) at 100 μl/well. The plates were incubated at 37° C., 5% CO2 for 2 hours. The plates were then washed 3× with RPMI/10% FBS (RPMI 1640, 2 mM L-glutamine, 110 μg/ml sodium pyruvate, PSN and 10% heat inactivated fetal bovine serum) and allowed to block for 15 minutes.
# TF-1 cells (derived from acute myeloid leukemia cells) were resuspended in RPMI/10% FBS and plated into at 10,000 cells/well into the zsig37CEE-coated 96 well plates at a final volume of 120 μl/well. The plate was incubated at 37° C. under 5% CO2 for 2 hours. The plates were then washed 3× with PBS and 200 μl/well growth media (RPMI/10% FBS, 5 ng/ml GM-CSF) was added. The cells were microscopically inspected before and after the wash.
# A dye incorporation assay was also used to measure the number of adherent cells based on a colorimetric change and an increase in fluorescent signal. ALAMAR BLUE (AccuMed; Chicago, Ill.) was added to the 96 well plates and the cells were incubated at 37° C. under 5% CO2 overnight. […]
molecule,measurement,setting,value
"ReoPro: comparator in template bleeding time study, 0.25 mg/kg [reference compound]",template bleeding time vs control (1.0 mg/kg BSA),template bleeding time,unable to stop their bleeding
B1,adherent cells (ALAMAR BLUE dye incorporation),TF-1 cells,more adherent cells on the C-terminal Glu-Glu tagged (zsig37CEE)-PBS coated plates than on the zsig37CEE-0.1 M NaCO3 coated plates
